{
  "source": "patent US12065471B2",
  "about": "“B*44 restricted peptides for use in immunotherapy against cancers and related methods” (Immatics Biotechnologies GmbH, priority 2018, dated 2024)",
  "data": [
    {"biological_target": "HLA-B*44:05 (Homo sapiens, UniProt P01889, A223V/A65T/A93T/A95T/D201E/D98Y/E176V/E187L/E204Q/E69K/G107R/H137Y/K202T/L105A/L119I/N104T/N87E/Q56L/Q94N/R106L/R155S/R180D/S101N/S121R/S35A/S48T/T118I/V36M/W191S/Y91S)", "assay": "MHC binding assay (UV-ligand exchange, β2m ELISA, peptide exchange yield)", "settings": "binding to HLA-B*44:05", "method_in_brief": "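Peptide–HLA complexes formed by UV-ligand exchange of a UV-cleavable peptide for the test peptide. Exchange yield measured by β2m ELISA: complexes diluted 100-fold and captured on streptavidin, detected with HRP anti-β2m and TMB, read at 450 nm. Quantified against refolded HLA-A*02:01/MLA-001 monomer standards, 15-500 ng/ml.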", "values": [
      {"substance": "185 (TEANVQALF; listed as Homo sapiens) [compound 185]", "Peptide exchange (MHC class I binding score, peptide exchange yield)": "++++ (>75% = ++++)"},
      {"substance": "380 (EECGKAFRVF; listed as Homo sapiens) [compound 380]", "Peptide exchange (MHC class I binding score, peptide exchange yield)": "+++ (>50 = +++)"},
      {"substance": "310 (FELECPVKY; listed as Homo sapiens) [compound 310]", "Peptide exchange (MHC class I binding score, peptide exchange yield)": "+++ (>50 = +++)"},
      {"substance": "407 (MEFQNTQSY; listed as Homo sapiens) [compound 407]", "Peptide exchange (MHC class I binding score, peptide exchange yield)": "+++ (>50 = +++)"},
      {"substance": "228 (LEYEAPKLY; listed as Homo sapiens) [compound 228]", "Peptide exchange (MHC class I binding score, peptide exchange yield)": "++ (>20% = ++)"},
      {"substance": "293 (QEDEQLLLRF; listed as Homo sapiens) [compound 293]", "Peptide exchange (MHC class I binding score, peptide exchange yield)": "+++ (>50 = +++)"},
      {"substance": "193 (RELRPLFDRQW; listed as Homo sapiens) [compound 193]", "Peptide exchange (MHC class I binding score, peptide exchange yield)": "+++ (>50 = +++)"},
      {"substance": "106 (SVISDSPRSW; listed as Homo sapiens) [compound 106]", "Peptide exchange (MHC class I binding score, peptide exchange yield)": "+++ (>50 = +++)"},
      {"substance": "286 (DELSVGRY; listed as Homo sapiens) [compound 286]", "Peptide exchange (MHC class I binding score, peptide exchange yield)": "++ (>20% = ++)"},
      {"substance": "395 (AEDFVWAQW; listed as Homo sapiens) [compound 395]", "Peptide exchange (MHC class I binding score, peptide exchange yield)": "++++ (>75% = ++++)"},
      {"substance": "301 (AERIMFSDL; listed as Homo sapiens) [compound 301]", "Peptide exchange (MHC class I binding score, peptide exchange yield)": "++++ (>75% = ++++)"},
      {"substance": "252 (EEFIGKIGI; listed as Homo sapiens) [compound 252]", "Peptide exchange (MHC class I binding score, peptide exchange yield)": "++ (>20% = ++)"},
      {"substance": "209 (AEGEPPPAL; listed as Homo sapiens) [compound 209]", "Peptide exchange (MHC class I binding score, peptide exchange yield)": "+++ (>50 = +++)"},
      {"substance": "309 (SDDLRNVTW; listed as Homo sapiens) [compound 309]", "Peptide exchange (MHC class I binding score, peptide exchange yield)": "++++ (>75% = ++++)"},
      {"substance": "319 (YEWEPFAEV; listed as Homo sapiens) [compound 319]", "Peptide exchange (MHC class I binding score, peptide exchange yield)": "+ (>10% = +)"},
      {"substance": "308 (EEPKIDFRVY; listed as Homo sapiens) [compound 308]", "Peptide exchange (MHC class I binding score, peptide exchange yield)": "+++ (>50 = +++)"},
      {"substance": "359 (NEFRRKLTF; listed as Homo sapiens) [compound 359]", "Peptide exchange (MHC class I binding score, peptide exchange yield)": "+++ (>50 = +++)"},
      {"substance": "410 (RELEEEFYSL; listed as Homo sapiens) [compound 410]", "Peptide exchange (MHC class I binding score, peptide exchange yield)": "+++ (>50 = +++)"},
      {"substance": "409 (QEAKPRATW; listed as Homo sapiens) [compound 409]", "Peptide exchange (MHC class I binding score, peptide exchange yield)": "+++ (>50 = +++)"},
      {"substance": "92 (KEPSQSCIAQY; listed as Homo sapiens) [compound 92]", "Peptide exchange (MHC class I binding score, peptide exchange yield)": "+ (>10% = +)"},
      {"substance": "188 (AEFVPKADLL; listed as Homo sapiens) [compound 188]", "Peptide exchange (MHC class I binding score, peptide exchange yield)": "+++ (>50 = +++)"},
      {"substance": "437 (HEDPSGSLHL; listed as Homo sapiens) [compound 437]", "Peptide exchange (MHC class I binding score, peptide exchange yield)": "+++ (>50 = +++)"},
      {"substance": "242 (CDAQIQYSY; listed as Homo sapiens) [compound 242]", "Peptide exchange (MHC class I binding score, peptide exchange yield)": "+++ (>50 = +++)"},
      {"substance": "144 (IEAYLERIGY; listed as Homo sapiens) [compound 144]", "Peptide exchange (MHC class I binding score, peptide exchange yield)": "+++ (>50 = +++)"},
      {"substance": "368 (KEKVPGITI; listed as Homo sapiens) [compound 368]", "Peptide exchange (MHC class I binding score, peptide exchange yield)": "+++ (>50 = +++)"},
      {"substance": "435 (FETEQALRL; listed as Homo sapiens) [compound 435]", "Peptide exchange (MHC class I binding score, peptide exchange yield)": "+++ (>50 = +++)"}
    ]}
  ]
}
